Where a chain is given by its changes, count along the chain named.

B1: UC antibody 5 (antibody, V domains shown)
VH: QVQLVQSGAEVKKPGASVKVSCKASGHTFSSFGISWVRQAPGQGLEWMGWISAYNGNTNSAQKFQGRVTMTTDTSTSTAYMELRSLRSDDTAVYYCARDRGFRGDTAMIKGGMDVWGQGTTVTVSS
VL: VLTQPPSVSVSPGQTASITCSGDKLGDKYACWYQQKSGQAPVLVIYQDSKRPSGIPERFSGSNSGNTATLTISGTQAMDEADYYCQAWDSSTALVFGGGTKLTVL
notes: Human monoclonal IgG from a UC patient, expressed in CHO cells
B2: UC antibody 6 (antibody, V domains shown)
VH: B1 VH
VL: QSVLTQPPSVSGAPGQRVTISCTGSSSTIGANNDVHWYQQLPGTAPKLLIYGNKNRPSGVSDRFSGSKSGTSASLAITGLQAEDEADYYCQSYDSSLSDLYVFGTGTKVTVL
notes: as for B1
B3: UC antibody 4 (antibody, V domains shown)
VH: B1 VH with H27Y
VL: SYELTQPPSVSVSPGQTARITCSGDALPKQYAYWYQQKPGQAPVLVIYKDSERPSGIPERFSGSSSGTMATLTISGAQVEDEGDYYCSSTDSNSQRVFGGGTKLTVL
notes: as for B1
B4: PSC antibody 1 (antibody, V domains shown)
VH: B1 VH
VL: QSALTQPASVSGSPGQSITISCTGTSSDVGGYNYVSWYQQHPGKAPQLIIYDVSKRPSGVSNRFSGSRSGNTASLTISGLQAEDEADYYCSSYTSSSTYVFGTGTKVTVL
notes: Human monoclonal IgG from a PSC patient, expressed in CHO cells
B5: UC antibody 2 (antibody, V domains shown)
VH: EVQLVESGGGLVKPGGSLRVSCVVSGFTITNAWMSWVRQAPGKGLEWVGRSKSKTDGGTTDYIAPVKGRFTISRDDSKNTLYLEMNSLKTEDTAVYYCATDRPLKLRGRDYNYYVMDVWGQGTTVTVSS
VL: DIQMTQSPSSLSASVGDRVTITCRASQSIARSLNWYQQKPGKAPNLLIYAASTLQSGVPSRFSGSGSGTDFTLTIGSLQPEDFATYSCQQSSSSPLTFGGGTRVEIK
notes: as for B1
B6: UC antibody 7 (antibody, V domains shown)
VH: VQLVESGGGVVQPGRSLRLSCAASGFTFSSYGMHWVRQAPGKGLEWVAFISYDGINKYYADSVKGRFTISRDNSKDTLYLQMNSLRAEDTAVYYCAKVIPRIRGSGDKAGIKDYYYYGMDVWGQGTTVTVSS
VL: EIVLTQSPATLSLSPGERATLSCRASQSVSSYLAWYQQKPGQAPRLLIYDASNRATGIPARFSGSGSGTDFTLTISSLEPEDFAVYYCQQRSNWLTFGGGTKVEIK
notes: as for B1
B7: UC antibody 8 (antibody, V domains shown)
VH: QVQLVESGGGVVQPGRSLRLSCAASGFTFSSYAMHWVRQAPGKGLEWVAFISYDGINKYYADSVKGRFTISRDNPKDTLYLQMNSLRAEDTAVYYCAKVIPRIRGSGDKAGIKDYYYYGMDVWGRGTTVTVSS
VL: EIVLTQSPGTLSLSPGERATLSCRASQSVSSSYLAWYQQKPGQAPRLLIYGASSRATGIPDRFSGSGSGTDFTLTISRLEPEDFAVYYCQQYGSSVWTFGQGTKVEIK
notes: as for B1
B8: UC antibody 9 (antibody, V domains shown)
VH: B7 VH with A33G, P75S, R125Q
VL: QSVLTQPPSVSAAPGQKVTISCSGSSSNIGNNYVSWYQQLPGTAPKLLIYDNNKRPSGIPDRFSGSKSGTSATLGITGLQTGDEADYYCGTWDSSLSAVVFGGGTKLTVL
notes: as for B1
B9: UC antibody 3 (antibody, V domains shown)
VH: QVQLVESGGGVVQPGRSLRVSCAASGFTFSIYGMHWVRQAPGKGLEWVAVISSDGTNQYYADSVKGRFTISRDNSNNTVYLQMNSLGGEDTAVYYCAKDRGRRGDSGWYRHFDYWGQGTLVTVSS
VL: B8 VL with I29N, L40V
notes: as for B1

T2 sequence (P06756 31-992 limits assumed, chain 1 of 2): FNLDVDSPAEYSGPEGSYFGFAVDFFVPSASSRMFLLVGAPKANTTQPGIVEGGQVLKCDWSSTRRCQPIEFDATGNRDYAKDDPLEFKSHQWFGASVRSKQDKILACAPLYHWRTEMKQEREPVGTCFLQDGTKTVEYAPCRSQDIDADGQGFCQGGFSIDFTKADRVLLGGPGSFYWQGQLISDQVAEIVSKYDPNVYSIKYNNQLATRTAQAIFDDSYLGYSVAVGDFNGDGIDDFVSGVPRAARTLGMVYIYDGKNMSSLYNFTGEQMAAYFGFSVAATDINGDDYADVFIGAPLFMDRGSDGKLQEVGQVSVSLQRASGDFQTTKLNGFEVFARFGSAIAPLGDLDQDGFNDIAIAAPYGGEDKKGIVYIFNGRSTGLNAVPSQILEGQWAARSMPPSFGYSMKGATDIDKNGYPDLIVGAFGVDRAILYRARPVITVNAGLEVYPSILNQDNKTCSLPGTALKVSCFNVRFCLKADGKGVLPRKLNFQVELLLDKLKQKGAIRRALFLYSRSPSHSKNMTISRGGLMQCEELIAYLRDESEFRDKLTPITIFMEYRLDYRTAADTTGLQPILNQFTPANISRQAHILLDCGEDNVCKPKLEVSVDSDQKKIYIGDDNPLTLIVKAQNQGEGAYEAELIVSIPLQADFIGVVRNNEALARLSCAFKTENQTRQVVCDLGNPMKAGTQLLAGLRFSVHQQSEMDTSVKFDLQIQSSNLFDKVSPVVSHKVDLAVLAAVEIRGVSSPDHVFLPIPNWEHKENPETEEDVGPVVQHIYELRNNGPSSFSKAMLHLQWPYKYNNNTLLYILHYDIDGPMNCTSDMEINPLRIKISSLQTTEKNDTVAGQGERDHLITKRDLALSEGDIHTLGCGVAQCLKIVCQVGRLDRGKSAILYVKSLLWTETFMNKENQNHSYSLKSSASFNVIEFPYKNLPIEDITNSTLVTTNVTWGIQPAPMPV
T2 sequence (P18564 22-707 limits assumed, chain 2 of 2): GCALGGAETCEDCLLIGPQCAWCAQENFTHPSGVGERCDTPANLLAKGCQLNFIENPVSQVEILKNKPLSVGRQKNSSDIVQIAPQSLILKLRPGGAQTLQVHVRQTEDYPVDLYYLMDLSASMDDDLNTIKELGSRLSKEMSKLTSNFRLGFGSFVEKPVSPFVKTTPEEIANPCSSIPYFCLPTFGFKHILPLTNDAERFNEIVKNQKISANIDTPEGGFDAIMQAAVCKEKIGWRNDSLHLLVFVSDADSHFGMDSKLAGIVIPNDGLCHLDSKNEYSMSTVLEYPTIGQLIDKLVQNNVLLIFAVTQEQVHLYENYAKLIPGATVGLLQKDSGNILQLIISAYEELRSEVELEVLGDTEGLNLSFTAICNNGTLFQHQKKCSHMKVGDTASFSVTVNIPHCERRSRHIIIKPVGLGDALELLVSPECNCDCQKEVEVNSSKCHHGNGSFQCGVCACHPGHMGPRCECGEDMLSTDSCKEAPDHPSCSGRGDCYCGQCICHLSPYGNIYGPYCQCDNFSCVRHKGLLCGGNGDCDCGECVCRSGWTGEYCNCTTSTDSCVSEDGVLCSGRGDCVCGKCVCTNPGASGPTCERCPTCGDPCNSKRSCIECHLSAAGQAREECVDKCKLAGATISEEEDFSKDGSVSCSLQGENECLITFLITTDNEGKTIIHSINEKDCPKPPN

In the first assay the target is T1, Biotinylated human integrin αvβ6 (ACROBiosystems, product number IT6-H82E4) (human, UniProt P06756 31-992; P18564 22-707, biotinylated (Avi tag at the C-terminus) ; Biotin on the Avi tag at the C-terminus of the αv chain; the tag is not in the letters.).
T1 construct: Bought heterodimer; also called biotinylated integrin αvβ6; not shown: basic tail on the β6 chain
T1 sequence (P06756 31-992 limits assumed, chain 1 of 2): as the sequence (P06756 31-992 limits assumed, chain 1 of 2) above
T1 sequence (P18564 22-707 limits assumed, chain 2 of 2): as the sequence (P18564 22-707 limits assumed, chain 2 of 2) above
Briefly: BLI (Octet RED96), biotinylated integrin αvβ6 on biosensor, antibody in solution. As to the method: Next, the binding affinity of the obtained anti-integrin αvβ6 monoclonal antibodies derived from UC or PSC patients was determined. The KD value was measured by biolayer interferometry using Octet RED96 (Sartorius). A 100 nM solution of the antibody, and serially diluted solutions of biotinylated integrin αvβ6 protein in the range of 200 to 6.25 nM were prepared using a buffer containing 20 mM Tris, 150 mM NaCl, 1 mM CaCl₂, 1 mM MgCl₂, 0.1% human serum albumin (014-27604; Fujifilm Wako Pure Chemical Industries, Ltd.) and 0.02% Tween 20 (1610781; Bio-Rad), and added to a 96-well plate (Greiner; 655209) at 200 μL/well. The biotinylated integrin αvβ6 was allowed to bind for 5 minutes to a biosensor (18-5136; Sartorius) soaked in the buffer. After washing of the biosensor, the biosensor was immersed in each antibody solution for 5 minutes (binding reaction). Then, the sensor was immersed in the buffer solution for 1 minute (dissociation reaction). The binding dissociation constant (KD value) between “integrin αvβ6-each monoclonal antibody” was determined using the analysis software (Octet BLI Analysis) attached to the device.
The molecule B1 registered a Kd of 8.25 nM. That is a single-digit nanomolar value.

B2 yielded a Kd of 20.8 nM. Against the preceding molecule, the Kd is about 2.5-fold higher.

In turn, B3 returned a dissociation constant (Kd) of 3.15 nM.

Take B4: the equilibrium dissociation constant (Kd) was 8.91 nM.

Turning to B5, binding was put at a Kd of 1.95 nM. This Kd is about 4.6-fold lower than that of the molecule before.

In turn, B6 returned a Kd of 5.18 nM.

B7 returned a Kd of 10.6 nM. This Kd lies about 2-fold higher than the previous one.

For the molecule B8, the Kd was 5.96 nM.

On to B9, for which binding was put at a Kd of 15 nM.

A further assay has as its target T2, human integrin αvβ6 (ACROBiosystems, product number IT6-H52E1) (human, UniProt P06756 31-992; P18564 22-707).
T2 construct: also called histidine-tagged integrin αvβ6; histidine-tagged extracellular domain protein of integrin αvβ6; not shown: linker and basic tail on the β6 chain
Briefly: competition ELISA: integrin αvβ6 coated, peptide RGDS 0-100 µg/mL added together with PSC patient IgG 1:100 (competitor); bound human IgG detected (A450). The method, then:
A microtiter plate was coated with 100 μL/well of 2 μg/mL integrin αvβ6 overnight at 4° C., and then blocked. Peptide RGDS (SEQ ID NO: 9: Arg-Gly-Asp-Ser) or RGES (SEQ ID NO: 10: Arg-Gly-Glu-Ser) as RGD motif or RGE motif (control) was added together with 100 μL of patient-derived IgG dilution (1:100) to the plate, and the plate was incubated at room temperature for 60 minutes. After washing, 100 μl/well of an HRP-labeled anti-human IgG antibody (50,000-fold dilution; ab6759; Abcam) was added to the plate and the plate was incubated at room temperature for 60 minutes. After washing, the plate was incubated with 3,3′,5,5′-tetramethylbenzidine for 7 minutes, and an absorbance density (OD value) at 450 nm was measured to detect human IgG bound to integrin αvβ6 on the solid phase.
Regarding RGDS (also called RGD peptide; RGD motif) [Peptide RGDS], the binding result is “binds”.

Values taken from patent publication US20260199576A1 (KYOTO UNIVERSITY, published 2026).
